For two sequences, Kd and activity results are on record in US20130177556.

pKd: −log10 of the molar value. Where two headings read alike, the source gives them in different places.

In series [1] the target is EGFR on A549 cells (Homo sapiens) (UniProt P00533).
For series [2] the target is unchanged. Kind of series: cell_activity. The following applies: 2'-F pyrimidines (all C and U); inhibition of EGF-dependent EGFR phosphorylation in A549, 200 nM aptamer.
Series [3] concerns the target EGFR extracellular domain (EC-EGFR) (Homo sapiens) (UniProt P00533). Put plainly: filter. Conditions: 2'-F pyrimidines (all C and U); PBS, 0.01% BSA, 37 C, 15 min; scrambled background subtracted.

Usually pKd stands for −log10 of the Kd, conventionally taken in molar units. A low value points to a large Kd. In series [1] (2'-F pyrimidines, Kd stated for full-length CL4, whole A549 cells implied), “GGGAGACAAGAAUAAACGCUCAACGACACGUUGCCAGCCGGAGCCUUAGUAACGUGCUUUGAUGUCGAUUCGACAGGAGGCUCACAACAGGC [CL4]” had a pKd of 7.34.
As for “GCCUUAGUAACGUGCUUUGAUGUCGAUUCGACAGGAGGC [CL4 42-81]”, the pKd in series [1] (2'-F pyrimidines (all C and U), binding to whole A549 cells, radiolabelled aptamer) is 7.42; in series [3] it was 8.00. Further, the activity in series [2] amounted to 60 % inhibition.
